“And” between values parts separate entries of the source, which are not always exact repeats. Equal values may be shown once.
What was measured:
[1] = target: Acinetobacter baumannii glutamyl-tRNA reductase (HemA), N-terminal His-tagged (Acinetobacter baumannii (strain ATCC 19606)); assay: SEC; sample of AbHemA and AbHemL co-expressed (pET28hemL_(6xHis)-hemA_(6xHis)) and co-purified on NiNTA; Superdex 200 10/300 GL, room temperature, 0.5 mL/min, 50 mM Na phosphate pH 8.0, 100 mM NaCl; fractions checked by SDS-PAGE; also after 16 h at 4°C without or with 0.1 M sodium citrate, and of a sample grown and purified with citrate
[2] = target: Acinetobacter baumannii glutamate-1-semialdehyde-2,1-aminomutase (HemL), N-terminal His-tagged (Acinetobacter baumannii (strain ATCC 19606)); assay: SEC; individually purified protein alone; Superdex 200 10/300 GL, room temperature, 50 mM Na phosphate pH 8.0, 100 mM NaCl; calibrated with ferritin, aldolase, conalbumin, ovalbumin
[3] = target: Acinetobacter baumannii glutamyl-tRNA reductase (HemA), N-terminal His-tagged (Acinetobacter baumannii (strain ATCC 19606)); assay: as above

| fold increase of the 200 kDa complex fraction with 0.1 M sodium citrate against without citrate [1] [fold] | stoichiometry N [2] | stoichiometry N [3] | Substance |
| --- | --- | --- | --- |
| 4 | 2 | – | Acinetobacter baumannii glutamate-1-semialdehyde-2,1-aminomutase (HemL), N-terminal His-tagged (enzyme) |
| – | – | 4 and 2 | Acinetobacter baumannii glutamyl-tRNA reductase (HemA), N-terminal His-tagged (enzyme) |

From publication PMC6399207
